These results are taken from paper PMC1904285.

In data set [1] the target is T1, His6-CspB (major cold shock protein) (Bacillus subtilis, UniProt P32081 1-67). The data set can be described thus: ITC. (Isothermal titration calorimetry measures the heat released or taken up as one component is titrated into another.)
For data set [2], the target named is His6-CspB (major cold shock protein);SsoSSB (Bacillus subtilis;Sulfolobus …, UniProt P32081;Q97W73 1-67;1-148, |). The data set can be described thus: EMSA.
His6-CspB (major cold shock protein);SsoSSB, sequence (P32081 whole entry, one chain of several): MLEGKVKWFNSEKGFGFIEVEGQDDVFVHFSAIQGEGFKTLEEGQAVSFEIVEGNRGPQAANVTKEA
For data set [3], the target named is T1, His6-CspB (major cold shock protein). The data set can be described thus: competition EMSA. Background: Mobility shift assays separate free from complexed probe on a gel.
The target in data set [4] is T2, SsoSSB-Cy5 (Sulfolobus solfataricus, UniProt Q97W73 1-148).
T2 sequence: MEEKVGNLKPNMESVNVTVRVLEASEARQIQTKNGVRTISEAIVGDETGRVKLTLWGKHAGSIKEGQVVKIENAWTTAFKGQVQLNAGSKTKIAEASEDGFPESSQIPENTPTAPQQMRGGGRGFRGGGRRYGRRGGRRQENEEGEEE
In words: EMSA.

For data set [5], the target named is T3, SsoSSB (Sulfolobus solfataricus, UniProt Q97W73 1-148).
T3 sequence: T2 sequence
In words: EMSA.

The target in data set [6] is CspB (untagged) (Bacillus subtilis, UniProt P32081 1-67). In words: EMSA.
CspB (untagged), sequence (P32081 whole entry): as the sequence (P32081 whole entry, one chain of several) above
Data set [7] addresses T1, His6-CspB (major cold shock protein). The data set can be described thus: EMSA.

T1 sequence (P32081 whole entry): as the sequence (P32081 whole entry, one chain of several) above

Consider GTCTTTG (ssDNA) [ITC1 (consensus variant GTCTTTG)], for which, in data set [1], the binding result is recorded as “binds”.

For AAAAAAAAAAGCACTTAAAAAAAAA (ssDNA) [ON-Mt], the binding result in data set [2] and in data set [3] was “binds” in each case.

ATCCTACTGATTGGCCAAGGTGCTG (ssDNA) [ONc]: the binding result in data set [4], in data set [5], in data set [6] and in data set [7] was “binds” each time.

In the case of GTCTTTT (ssDNA) [ITC2 (consensus variant GTCTTTT)], the binding result in data set [1] is on record as “binds”.
